Laboratory results from paper PMC4695338.

Columns and labels:
Assay in all cases: EMSA
Conditions in all cases: EMSA: fluorescein-12 ssRNA incubated with MBP-tagged proteins, agarose gel; buffer, salt, pH and temperature not in the material
[1] = tested on: Pdd1p MIM14_FL (Tetrahymena (species not given))
[2] = tested on: Pdd1p WT_HNG1 (hinge region 1) (Tetrahymena (species not given))
[3] = tested on: Pdd1p WT_HNG2 (hinge region 2) (Tetrahymena (species not given))
[4] = tested on: Pdd1p MIM22+Ins6K_FL (Tetrahymena (species not given))
[5] = tested on: Pdd1p WT_FL (Tetrahymena (species not given))

EGFP ssRNA
Kd [1]: 0.34 µM | Kd [2]: 0.13 µM | Kd [3]: > 0.63 µM | Kd [4]: 0.347 µM | Kd [5]: 0.065 µM
